From patent US20260348974 (published 2026) come the findings set out here.

The target of the assay is human beta-tryptase (human, UniProt Q15661). The assay is described as follows: BLI steady state.
Chain of human beta-tryptase (Q15661 31-275): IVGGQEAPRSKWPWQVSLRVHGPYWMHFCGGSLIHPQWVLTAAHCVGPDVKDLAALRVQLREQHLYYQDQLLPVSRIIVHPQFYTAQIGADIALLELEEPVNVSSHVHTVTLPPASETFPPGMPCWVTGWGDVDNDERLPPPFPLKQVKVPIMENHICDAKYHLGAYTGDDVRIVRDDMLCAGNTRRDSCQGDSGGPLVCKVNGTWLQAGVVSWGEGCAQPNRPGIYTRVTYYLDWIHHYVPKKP

B1: E104.v1 6DS (LC.F116C.Q124C.HC.F126C.A141C) (antibody, V domains shown)
VH: EVQLVESGPGCVKPSETLSLTCTVSRFSLIGYAITWIRQPPGKGLEWIGGISSAATTFYSSWAKSRVTISVDTSKNQFSLKLSSVTAADTAVYYCARDPRGYGAALDRLDLWGQGTCVTVSS
VL: DIQMTQSPSSLSASVGDRVTITCQSIKSVYNNRLGWYQQKCGKAPKLLIYETSILTSGVPSRFSGSGSGTDFTLTISSLQCEDFATYYCAGGFDRSGDTTFGQGTKVEIKR
As a reminder, the Kd is the concentration at which binding is half-saturated. A lower Kd goes with higher affinity. The molecule B1 showed a Kd of 3.16 nM.

B2: E104.v1 4DS (antibody, V domains shown)
VH: B1 VH
VL: B1 VL
B2: the Kd is 1.63 nM.
